In article PMC3369541 (Methods in Molecular Biology (Clifton, N.j.), 2012):

Target: T1, FUS1 peptide (wild-type PDZ protein-binding motif)
T1 peptide: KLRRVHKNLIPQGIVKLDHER
Experiment: ProteinChip array with SELDI-TOF mass spectrometry

B1: Apaf1 peptide (PDZ protein-binding motif) (peptide)
peptide: LGILYILQTLE
  binding result: binds
